# B1: NECAB1 (parent)
# chain: FSPNSPQFNVSGPGLLEEDNQWMT
# B2: NCK2 (parent)
# chain: YVERKNSLKKGSLVKNLKDTLGLG
# Variants of: B1
# Experiment: protein stability index of a GFP-peptide fusion (GPS, HEK-293T) (PSI 1-6); higher = more stable
# Settings: c terminus: a fixed tail appended
# 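Further: lentivirally expressed fusions sorted by FACS into six bins by GFP to DsRed ratio, PSI derived from sequencing read proportions per bin multiplied by bin number.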
row,Variant,protein stability index
1,FSPNSPQFNVSGPGLLEEDCQWMT,2.63
2,FSPNSPQFNVSGPGLLEEDDQWMT,3.86
3,FSPNSPQFNVSGPGLLEEDEQWMT,3.73
4,FSPNSPQFNVSGPGLLEEDFQWMT,2.71
5,FSPNSPQFNVSGPGLLEEDGQWMT,2.79
6,FSPNSPQFNVSGPGLLEEDHQWMT,2.62
7,FSPNSPQFNVSGPGLLEEDIQWMT,2.24
8,FSPNSPQFNVSGPGLLEEDKQWMT,2.54
9,FSPNSPQFNVSGPGLLEEDLQWMT,2.27
10,FSPNSPQFNVSGPGLLEEDMQWMT,2.54
11,FSPNSPQFNVSGPGLLEEDPQWMT,3.28
12,FSPNSPQFNVSGPGLLEEDQQWMT,2.84
13,FSPNSPQFNVSGPGLLEEDRQWMT,2.88
14,FSPNSPQFNVSGPGLLEEDSQWMT,2.68
15,FSPNSPQFNVSGPGLLEEDTQWMT,3.19
16,FSPNSPQFNVSGPGLLEEDVQWMT,2.58
17,FSPNSPQFNVSGPGLLEEDWQWMT,2.46
18,FSPNSPQFNVSGPGLLEEDYQWMT,2.26
19,FSPNSPQFNVSGPGLLEEDNAWMT,2.45
20,FSPNSPQFNVSGPGLLEEDNCWMT,2.14
21,FSPNSPQFNVSGPGLLEEDNDWMT,1.97
22,FSPNSPQFNVSGPGLLEEDNEWMT,3.69
23,FSPNSPQFNVSGPGLLEEDNFWMT,1.87
24,FSPNSPQFNVSGPGLLEEDNGWMT,2.54

row,Variant,protein stability index
1,FSPNSPQFNVSGPGLLEEDNHWMT,2.57
2,FSPNSPQFNVSGPGLLEEDNIWMT,1.95
3,FSPNSPQFNVSGPGLLEEDNKWMT,3.06
4,FSPNSPQFNVSGPGLLEEDNLWMT,2.08
5,FSPNSPQFNVSGPGLLEEDNMWMT,1.84
6,FSPNSPQFNVSGPGLLEEDNNWMT,1.84
7,FSPNSPQFNVSGPGLLEEDNPWMT,2
8,FSPNSPQFNVSGPGLLEEDNRWMT,2.28
9,FSPNSPQFNVSGPGLLEEDNSWMT,2.15
10,FSPNSPQFNVSGPGLLEEDNTWMT,2.41
11,FSPNSPQFNVSGPGLLEEDNVWMT,1.72
12,FSPNSPQFNVSGPGLLEEDNYWMT,2.29
13,FSPNSPQFNVSGPGLLEEDNQAMT,3.96
14,FSPNSPQFNVSGPGLLEEDNQCMT,4.1
15,FSPNSPQFNVSGPGLLEEDNQDMT,4.65
16,FSPNSPQFNVSGPGLLEEDNQEMT,4.42
17,FSPNSPQFNVSGPGLLEEDNQFMT,3.59
18,FSPNSPQFNVSGPGLLEEDNQGMT,3.85
19,FSPNSPQFNVSGPGLLEEDNQHMT,3.84
20,FSPNSPQFNVSGPGLLEEDNQIMT,3.67
21,FSPNSPQFNVSGPGLLEEDNQKMT,3.54
22,FSPNSPQFNVSGPGLLEEDNQLMT,3.71
23,FSPNSPQFNVSGPGLLEEDNQMMT,3.39
24,FSPNSPQFNVSGPGLLEEDNQNMT,4.07

row,Variant,protein stability index
1,FSPNSPQFNVSGPGLLEEDNQPMT,4.21
2,FSPNSPQFNVSGPGLLEEDNQQMT,4.03
3,FSPNSPQFNVSGPGLLEEDNQRMT,3.93
4,FSPNSPQFNVSGPGLLEEDNQSMT,4.03
5,FSPNSPQFNVSGPGLLEEDNQTMT,3.83
6,FSPNSPQFNVSGPGLLEEDNQVMT,3.79
7,FSPNSPQFNVSGPGLLEEDNQYMT,3.49
8,FSPNSPQFNVSGPGLLEEDNQWAT,3.66
9,FSPNSPQFNVSGPGLLEEDNQWCT,2.67
10,FSPNSPQFNVSGPGLLEEDNQWDT,4.65
11,FSPNSPQFNVSGPGLLEEDNQWET,4.15
12,FSPNSPQFNVSGPGLLEEDNQWFT,2.44
13,FSPNSPQFNVSGPGLLEEDNQWGT,3.66
14,FSPNSPQFNVSGPGLLEEDNQWHT,2.8
15,FSPNSPQFNVSGPGLLEEDNQWIT,2.45
16,FSPNSPQFNVSGPGLLEEDNQWKT,4.15
17,FSPNSPQFNVSGPGLLEEDNQWLT,2.76
18,FSPNSPQFNVSGPGLLEEDNQWNT,3.45
19,FSPNSPQFNVSGPGLLEEDNQWPT,2.87
20,FSPNSPQFNVSGPGLLEEDNQWQT,3.43
21,FSPNSPQFNVSGPGLLEEDNQWRT,3.08
22,FSPNSPQFNVSGPGLLEEDNQWST,3.5
23,FSPNSPQFNVSGPGLLEEDNQWTT,3
24,FSPNSPQFNVSGPGLLEEDNQWVT,2.71

row,Variant,protein stability index
1,FSPNSPQFNVSGPGLLEEDNQWWT,2.35
2,FSPNSPQFNVSGPGLLEEDNQWYT,2.77
3,FSPNSPQFNVSGPGLLEEDNQWMA,2.82
4,FSPNSPQFNVSGPGLLEEDNQWMC,2.91
5,FSPNSPQFNVSGPGLLEEDNQWMD,3.57
6,FSPNSPQFNVSGPGLLEEDNQWME,3.92
7,FSPNSPQFNVSGPGLLEEDNQWMF,1.88
8,FSPNSPQFNVSGPGLLEEDNQWMG,3.01
9,FSPNSPQFNVSGPGLLEEDNQWMH,2.99
10,FSPNSPQFNVSGPGLLEEDNQWMI,2.69
11,FSPNSPQFNVSGPGLLEEDNQWMK,2.37
12,FSPNSPQFNVSGPGLLEEDNQWML,3
13,FSPNSPQFNVSGPGLLEEDNQWMM,2.4
14,FSPNSPQFNVSGPGLLEEDNQWMN,2.84
15,FSPNSPQFNVSGPGLLEEDNQWMP,2.69
16,FSPNSPQFNVSGPGLLEEDNQWMQ,3.04
17,FSPNSPQFNVSGPGLLEEDNQWMR,2.97
18,FSPNSPQFNVSGPGLLEEDNQWMS,3.27
19,FSPNSPQFNVSGPGLLEEDNQWMV,2.36
20,FSPNSPQFNVSGPGLLEEDNQWMW,1.69
21,FSPNSPQFNVSGPGLLEEDNQWMY,2.57

# Variants of: B2
# Experiment: as above
# Settings: c terminus: a fixed tail appended
row,Variant,protein stability index
1,YVERKNSQKKGSLVKNLKDTLGLG,2.88

# Reference: the supplement of paper PMC10567573
